From paper PMC12650828

Molecular target: cell-surface nucleolin (NCL) (UniProt P19338)
Test: competition
Settings: MST: 300 nM FAM-aptamer, NCL 1.95 nM-4 uM, binding buffer not specified, 25 C, 15 min; AP1-AP6 and Mut folded in 100 mM KCl, 10 mM K3PO4 pH 7.0; AS1411 in …; scale: % decrease of anti-NCL fluorescence at 4 uM

cell-surface nucleolin (NCL), sequence (P19338 whole entry): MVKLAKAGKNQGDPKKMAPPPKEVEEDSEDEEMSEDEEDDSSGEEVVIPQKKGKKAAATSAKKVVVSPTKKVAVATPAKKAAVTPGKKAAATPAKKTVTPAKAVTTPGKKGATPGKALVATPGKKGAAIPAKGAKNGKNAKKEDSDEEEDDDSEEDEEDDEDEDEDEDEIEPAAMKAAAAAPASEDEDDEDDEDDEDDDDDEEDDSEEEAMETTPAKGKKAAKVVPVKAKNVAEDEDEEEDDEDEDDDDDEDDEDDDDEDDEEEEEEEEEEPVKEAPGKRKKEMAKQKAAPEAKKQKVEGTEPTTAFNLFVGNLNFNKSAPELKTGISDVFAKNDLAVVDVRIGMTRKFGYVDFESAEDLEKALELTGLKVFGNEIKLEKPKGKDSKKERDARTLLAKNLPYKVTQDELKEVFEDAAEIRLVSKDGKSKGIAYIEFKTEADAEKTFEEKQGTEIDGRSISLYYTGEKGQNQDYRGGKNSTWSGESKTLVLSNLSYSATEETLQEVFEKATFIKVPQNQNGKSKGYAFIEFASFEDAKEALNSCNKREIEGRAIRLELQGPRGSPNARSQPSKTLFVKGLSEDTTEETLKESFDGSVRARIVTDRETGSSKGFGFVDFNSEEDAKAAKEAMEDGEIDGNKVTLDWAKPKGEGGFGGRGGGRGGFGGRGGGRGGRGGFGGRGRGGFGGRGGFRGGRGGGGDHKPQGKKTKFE

GUUAGGGUUUGGGAUUG [AP1]
binding signal: 50
